Earlier results in patent US11097005B2, “Use of cadherin-11 antagonists to treat metabolic disorders and/or increase insulin sensitivity” (The Brigham and Women's Hospital, Inc., priority 2014, dated 2021).

Conditions: ob/ob mice; IL-33 administration

B1: IL-33: cytokine, ST2 ligand; administration to ob/ob mice cited from literature (protein, UniProt Q8BVZ5 1-266, looked up)
Interleukin-33: MRPRMKYSNSKISPAKFSSTAGEALVPPCKIRRSQQKTKEFCHVYCMRLRSGLTIRKETSYFRKEPTKRYSLKSGTKHEENFSAYPRDSRKRSLLGSIQAFAASVDTLSIQGTSLLTQSPASLSTYNDQSVSFVLENGCYVINVDDSGKDQEQDQVLLRYYESPCPASQSGDGVDGKKLMVNMSPIKDTDIWLHANDKDYSVELQRGDVSPPEQAFFVLHKKSSDFVSFECKNLPGTYIGVKDNQLALVEEKDESCNNIMFKLSKI
accumulation of M2-macrophages in adipose tissue: improve | glucose tolerance: improve
